Values belong to the substance of their own block, whether it stands above or below them.
Columns and labels:
Assay in all cases: cell-based or functional assay
[1] = molecular target: CadC-artTM-GCN4 (E. coli) (UniProt P23890)
[2] = molecular target: CadC-wtTM-GCN4 (E. coli) (UniProt P23890)
[3] = molecular target: DsRed (UniProt Q9U6Y8)
Sequence of DsRed (Q9U6Y8 whole entry): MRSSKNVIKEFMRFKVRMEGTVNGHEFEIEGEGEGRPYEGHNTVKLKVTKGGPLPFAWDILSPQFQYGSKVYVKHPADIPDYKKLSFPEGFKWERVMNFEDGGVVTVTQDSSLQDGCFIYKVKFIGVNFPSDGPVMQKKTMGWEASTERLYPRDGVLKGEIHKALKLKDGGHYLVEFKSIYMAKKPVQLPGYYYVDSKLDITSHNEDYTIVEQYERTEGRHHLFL

- fold change in GFP expression compared to the construct without GCN4 (pCadBA-GFP reporter, E. coli, flow cytometry) [1]: 300 fold
Substance: CadC-artTM-GCN4 (from UniProt P23890 1-154; P03069 253-274)

- fold change in GFP expression compared to the construct without GCN4 (pCadBA-GFP reporter, E. coli, flow cytometry) [2]: 50 fold
Substance: CadC-wtTM-GCN4 (from UniProt P23890 1-187; P03069 253-274)

- deGFP signal strength with DsRed in the medium (cell-free system, pLexA-deGFP reporter 300 ng/reaction, LexA-Lam4 plasmid 800 ng/reaction) [3]: 4850 a.u.
- deGFP signal strength without DsRed in the medium (baseline; cell-free system, pLexA-deGFP reporter 300 ng/reaction, LexA-Lam4 plasmid 800 ng/reaction) [3]: 41400 a.u.
- ratio of deGFP signal strength without and with DsRed (cell-free system, pLexA-deGFP reporter 300 ng/reaction, LexA-Lam4 plasmid 800 ng/reaction) [3]: 8.5
Substance: LexA-DBD-Lam4 (from UniProt P0A7C2 1-87)

Reference: patent US20200096507A1
